Source: the RNAGym collection of RNA variant scans (doi:10.1093/molbev/msab373)

B1: Azoarcus group I ribozyme (parent)
chain: GUGCCUUGCGCCGGGAAACCACGCAAGGGAUGGUGUCAAAUUCGGCGAAACCUAAGCGCCCGCCCGGGCGUAUGGCAACGCCGAGCCAAGCUUCGGCGCCUGCGCCGAUGAAGGUGUAGAGACUAGACGGCACCCACCUAAGGCAAACGCUAUGGUGAAGGCAUAGUCCAGGGAGUGGCGAAAGUCACACAAACCGG

Variants of: B1
Assay: reverse-splicing fitness (ratio to wild type); higher = more active; in vitro selection; Mg2+ level not given
Procedure, shortened: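 An in vitro group I ribozyme library with randomized positions was T7-transcribed and gel-purified. In triplicate, 10 pmol RNA in EPPS pH 7.5 was reacted with 50 pmoles of a 30-nt RNA substrate for 1 h at 37 °C across several added MgCl2 levels (1–48 mM), then stopped with EDTA. Products were reverse transcribed from a substrate-complementary primer, PCR-amplified and sequenced (HiSeq 4000). Fitness is a variant's read proportion after selection over that before, normalised to wild type.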

Variant | reverse-splicing fitness
C82U A120C A145C C150G C169G U176C | 0.00518
C82U A120C A145C C150G C169G U176A | 0.00773
C82U A120C A145C C150G C169G U176G | 0.00305
C82U A111U A145U C150U C169U | 0.0104
C82U A120C A145G | 0.169
C82U A120C A145U | 0.155
C82U A120C A145C | 0.149
C82U A120C A145G C169G U176G | 0.00346
C82U A120C A145G C169G U176A | 0.0152
C82U A120C A145G C169G U176C | 0.0181
C82U A120C A145G C150A C169G | 0.00829
C82U A120C A145G C150A C169A | 0.00919
C82U A120C A145G C150A C169U | 0.0116
C82U A111U C169A | 0.00848
C82U A111U C169G | 0.00886
C82U A111U C169U | 0.0122
C82U A120C A145G C169A U176A | 0.0158
C82U A120C A145G C169A U176C | 0.0219
C82U A120C A145G C169A U176G | 0.00317
C82U A111U A145U C169G U176C | 0.0101
C82U A111U A145U C169G U176G | 0.0053

Variant | reverse-splicing fitness
C82U A111U A145U C169G U176A | 0.0101
C82U A111U C150A | 0.031
C82U A111U C150G | 0.0213
C82U A111U C150U | 0.157
C82U A120C A145C C150U C169U | 0.0104
C82U A120C A145C C150U C169G | 0.00596
C82U A120C A145C C150U C169A | 0.00607
C82U A111U C150G U176A | 0.00833
C82U A111U C150G U176G | 0.00369
C82U A111U C150G U176C | 0.0152
C82U A120C A145C C150A U176C | 0.00962
C82U A120C A145C C150A U176G | 0.00472
C82U A120C A145C C150A U176A | 0.00873
C82U A120C C150A C169A U176G | 0.00426
C82U A120C C150A C169A U176C | 0.0132
C82U A120C C150A C169A U176A | 0.0169
C82U A120C A145C C150U C169A U176C | 0.00498
C82U A120C A145C C150U C169A U176G | 0.00409
C82U A120C A145C C150U C169A U176A | 0.00715
C82U A111U C150A C169G U176G | 0.00717
C82U A111U C150A C169G U176C | 0.0217

Variant | reverse-splicing fitness
C82U A111U C150A C169G U176A | 0.0193
C82U A120C | 0.167
C82U A120C C150G C169A U176G | 0.00606
C82U A120C C150G C169A U176A | 0.0104
C82U A120C C150G C169A U176C | 0.00991
C82U A120C C150A C169G U176G | 0.00373
C82U A120C C150A C169G U176C | 0.0164
C82U A120C C150A C169G U176A | 0.0156
C82U A120C A145C C150U C169U U176A | 0.0137
C82U A120C A145C C150U C169U U176C | 0.0109
C82U A120C A145C C150U C169U U176G | 0.00398
C82U A120C A145C C150G U176C | 0.0126
C82U A120C A145C C150G U176A | 0.00639
C82U A120C A145C C150G U176G | 0.00307
C82U A111U C150G C169U U176A | 0.00687
C82U A111U C150G C169U U176G | 0.00604
C82U A111U C150G C169U U176C | 0.0106
C82U A120C A145U C150U U176A | 0.0328
C82U A120C A145U C150U U176C | 0.0537
C82U A120C A145U C150U U176G | 0.00795
C82U A120C C150U U176C | 0.0444

Variant | reverse-splicing fitness
C82U A120C C150U U176A | 0.0291
C82U A120C C150U U176G | 0.00855
C82U A120C A145C C150G C169U U176C | 0.00991
C82U A120C A145C C150G C169U U176A | 0.00992
C82U A120C A145C C150G C169U U176G | 0.00403
C82U A111U C150U C169G U176G | 0.00639
C82U A111U C150U C169G U176A | 0.013
C82U A111U C150U C169G U176C | 0.0162
C82U A120C A145U C150G C169U | 0.00863
C82U A120C A145U C150G C169A | 0.00827
C82U A120C A145U C150G C169G | 0.0059
C82U A120C A145C C150A C169G | 0.00551
C82U A120C A145C C150A C169U | 0.00777
C82U A120C A145C C150A C169A | 0.00632
C82U A111U A145U C150U C169G U176G | 0.00583
C82U A120C A145U C150U | 0.109
C82U A120C A145U C150G | 0.0217
C82U A120C A145U C150A | 0.021
C82U A120C C150G C169G U176C | 0.00447
C82U A120C C150G C169G U176G | 0.00432
